PMC5220579 (Molecular immunology, 2016)

Assays:
[1] = biological target: T1, IgV domain of human nectin-2 (human, UniProt Q92692 32-158); assay: SPR
T1 sequence: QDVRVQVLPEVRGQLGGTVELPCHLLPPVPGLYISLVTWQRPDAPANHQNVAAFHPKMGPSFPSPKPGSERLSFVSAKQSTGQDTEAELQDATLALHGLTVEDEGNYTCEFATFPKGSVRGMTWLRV

[2] = biological target: T2, human PVR (poliovirus receptor) (human, UniProt P15151 21-343); assay: SPR
T2 sequence (looked up): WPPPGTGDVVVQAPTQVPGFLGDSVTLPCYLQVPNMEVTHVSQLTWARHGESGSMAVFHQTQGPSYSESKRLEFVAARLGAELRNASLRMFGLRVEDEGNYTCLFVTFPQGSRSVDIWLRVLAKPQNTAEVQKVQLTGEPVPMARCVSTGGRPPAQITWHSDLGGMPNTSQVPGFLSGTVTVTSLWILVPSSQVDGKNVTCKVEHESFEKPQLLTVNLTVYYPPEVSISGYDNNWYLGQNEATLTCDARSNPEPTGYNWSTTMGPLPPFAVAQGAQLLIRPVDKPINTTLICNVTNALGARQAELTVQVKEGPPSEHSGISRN

Kd [1]: 11.5 ± 1.1 µM
Kd [2]: 0.36 ± 0.025 µM
B1: IgV domain of human TIGIT (residues 22 to 137) (domain or fragment, UniProt Q495A1 22-137, looked up)
chain: MMTGTIETTGNISAEKGGSIILQCHLSSTTAQVTQVNWEQQDQLLAICNADLGWHISPSFKDRVAPGPGLGLTLQSLTVNDTGEYFCIYHTYPDGTYTGRIFLEVLESSVAEHGAR
